From publication PMC5450713 (Toxins, 2017)

B1: recombinant His-tagged Vip3Ag4 protein (natural protein, Bacillus thuringiensis, UniProt I6LPV9 1-787, looked up)
chain: MNKNNTKLNARALPSFIDYFNGIYGFATGIKDIMNMIFKTDTGGNLTLDEILKNQQLLNEISGKLDGVNGSLNDLIAQGNLNTELSKEILKIANEQNQVLNDVNNKLNAINTMLHIYLPKITSMLNDVMKQNYALSLQIEYLSKQLQEISDKLDVINVNVLINSTLTEITPAYQRMKYVNEKFEDLTFATETTLKVKKNSSPADILDELTELTELAKSVTKNDVDGFEFYLNTFHDVMVGNNLFGRSALKTASELIAKENVKTSGSEVGNVYNFLIVLTALQAKAFLTLTTCRKLLGLADIDYTFIMNEHLDKEKEEFRVNILPTLSNTFSNPNYAKAKGSNEDAKIIVEAKPGYALVGFEMSNDSITVLKAYQAKLKQDYQVDKDSLSEIVYGDMDKLLCPDQSEQIYYTNNIAFPNEYVITKITFTKKMNSLRYEATANFYDSSTGDIDLNKTKVESSEAEYSTLSASTDGVYMPLGIISETFLTPINGFGIVVDENSKLVNLTCKSYLREVLLATDLSNKETKLIVPPIGFISNIVENGNLEGENLEPWKANNKNAYVDHTGGVNGTKALYVHKDGEFSQFIGDKLKSKTEYVIQYIVKGKASILLKDEKNGDCIYEDTNNGLEDFQTITKSFITGTDSSGVHLIFNSQNGDEAFGENFTISEIRLSEDLLSPELINSDAWVGSQGTWISGNSLTINSNVNGTFRQNLSLESYSTYSMNFNVNGFAKVTVRNSREVLFEKNYPQLSPKDISEKFTTAANNTGLYVELSRFTSGGAINFRNFSIK
notes: Expected size with His-tag 91.38 kDa; also called Vip3Ag4 protoxin; unprocessed Vip3Ag4; source: E. coli BL21(DE3), pET28b, purified (Protino Ni-TED column, Sephacryl S-300 size exclusion); not shown: His tag, N-terminal, kept

Key:
[1] = molecular target: trypsin-treated Vip3Ag4 (complex of the ~65 kDa and ~21 kDa products of proteolysis) (Bacillus thuringiensis) (UniProt I6LPV9); experiment: SEC; SEC of trypsin-treated recombinant Vip3Ag4 compared with unprocessed material; fractions of the major peak analysed by SDS PAGE
[2] = molecular target: the molecule itself; experiment: SEC-MALS; Superdex 200 10/300 Increase, 100 uL at 1.0 mg/mL, 20 mM TrisHCl, 300 mM NaCl, pH 8.0, 0.7 mL/min
[3] = molecular target: the molecule itself; experiment: SEC; Hi-Prep 16/60 Sephacryl S-300, 20 mM TrisHCl pH 8.0, 300 mM NaCl, 0.5 mL/min, calibrated with gel filtration standards; initial Vip3Ag4 preparation after nickel affinity

| Molecule | stoichiometry N [1] | stoichiometry N [2] | stoichiometry N [3] |
| --- | --- | --- | --- |
| trypsin-treated Vip3Ag4 (complex of the ~65 kDa and ~21 kDa products of proteolysis) (from UniProt I6LPV9 1-182; I6LPV9 199-787) | 4 |  |  |
| B1 |  | 4 | ~4 |
